Measurements: patent US20240336900A1, “METHODS AND COMPOSITIONS RELATED TO MODIFIED METHYLTRANSFERASES AND ENGINEERED BIOSENSORS” (BOARD OF REGENTS, THE UNIVERSITY OF TEXAS SYSTEM, priority 2023, published 2024)

What was measured:
[1] = Biosensor-linked O-methyltransferase activity assay; assay type: cell-based, Escherichia coli; settings: single mutational designs; 25, 30, 37 °C; 100 uM, 1 mM norbelladine
Procedure: Nb4OMT was expressed with the P150-RBS (riboJ) promoter-RBS on the pReg-RamR plasmid backbone (no regulator present). Cells were co-transformed with both the 40MT plasmid and the 4NB reporter plasmid and plated on an LB agar plate containing appropriate antibiotics. Three individual colonies from each transformation were picked into LB and grown overnight. Resulting cultures were diluted 50-fold into 1 ml LB medium containing the indicated concentration of norbelladine in a 96-deep-well plate and were grown at the indicated temperature for 24 h. Subsequently, the fluorescence of cultures was measured in the same manner as previously described in Dose-response measurement above.

[2] = Steady state kinetics of purified Nb4OMT variants; assay type: biochemical
Procedure: Reactions for kinetics measurements were performed in triplicate for all enzyme variants. For each variant 1.5 ml reactions containing 3.5 nM of enzyme, 500 μM SAM, 2 mM CaCl2), and 15.625, 31.25, 62.5, 125, 250, or 500 μM norbelladine in PBS pH 7.5 were incubated at 37° C. for 4 hours. Every hour a 200 μl aliquot of each reaction was quenched by pipetting it into a 1.5 ml microcentrifuge tube with 20 μl of 2M HCl. The concentration of 4′-O-Methylnorbelladine was then determined using HPLC as described.
Kinetic data were fit in KinTek Explorer simulation and data fitting software v11 (Roy, 2018). The following minimal model was used as an input. Each line represents a step in the model and the forward reaction goes from left to right while the reverse reaction goes from right to left as written. • (1) E+S=ES • (2) ES=EP • (3) EP=E+P • (4) S=P2
3.5 nM enzyme and 15.625, 31.25, 62.5, 125, 250, and 500 M substrate. The output observable was defined as EP+P. Substrate oxidation was modeled in step (4) as irreversible with a best fit value from globally fitting data from all variants to derive k4=0.00547 min^−1.To get kout/Km and kcat: k−1, k−2, and k−3 were locked at 0 min-1 (irreversible reactions). k+3 was locked at 10,000 min-1 as to not limit the rate of turnover. k+1 and k+2 were used as variable parameters in the fitting. Under these conditions, k+2=kcat and k+1=kcat/Km. For estimates of 95% confidence intervals on kinetic parameters, confidence contour analysis was used with the FitSpace function in KinTek Explorer (Bhattacharya, 2015). Confidence contour plots are calculated by systematically varying a single rate constant and holding it fixed at a particular value while refitting the data, allowing other rate constants to float. The goodness of fit was scored by the resulting χ^2 value. The confidence interval is defined based on a threshold in χ^2 calculated from the F-distribution based on the number of data points and number of variable parameters to give the 95% confidence limits. For the data given in FIGS. 20A-20C, this threshold was 0.85 to estimate the upper and lower limits for each parameter. […] We then fit the data for these two variants to the model shown below, accounting for substrate inhibition.
As before, k+1 was allowed to float in the fitting to give kcat/Km, and k−1 was locked at 0 min^−1, k+2 was allowed to float in the fitting to give kcat, and k−2 was locked at 0 min^−1. k+3 was locked at 10,000 min^−1, and k−3 was locked at 0 min^−1. k+4 and k+6 were locked at 100 μM^−1 min^−1, and k−4 and k−6 were allowed to float in the fitting as linked parameters. k+5 was linked to k+1 and k−5 was locked at 0 min^−1. k−7 was locked at 0 min^−1, and k+7 was locked at 0.00547 min^−1.

[3] = Differential scanning fluorimetry; assay type: physicochemical
Procedure: Purified Nb4OMT variants in the concentration of 5 μM were prepared in 96-well low-profile PCR plates (ABgene, Thermo Scientific). 10×SYPRO® Orange (Molecular Probes) was added into each well and mixed prior to measurement in an RT-PCR machine (LightCycler 480, Roche). The protein melting experiments were carried out with a continuous temperature acquisition mode using 10 acquisitions per 1° C. in each cycle from 20° C. to 95° C. The melting curves of the Nb4OMT variants were monophasic and Tm values were derived using Boltzmann equation.

Molecule	fluorescent signal relative to the wild-type enzyme [1]	further results
H17K: Nb4OMT variant with mutation H17K (protein, Description of sequence: Improved enzyme variant H17K) MGASIDDYSLVHKNILKSEDLLKYILETSAYPREHEQLKGLREVTEKHEWSSALVPADEGLFLSMLLKLMNAKRTIEIGVYTGYSLLTTALALPEDGKITAIDVNKSYYEIGLPFIQKAGVEHKINFIESEALPVLDQMLEEMKEEDLYDYAFVDADKSNYANYHERLVKLVRIGGAILYDNTLWYGSVAYPEYPGLHPEEEVARLSFRNLNTFLAADPRVEISQVSIGDGVTICRRLY	above wild-type in at least one tested condition	–
E36P-G40E: Nb4OMT variant with mutations E36P and G40E (protein, Description of sequence: Improved enzyme variant E36P-G40E) MGASIDDYSLVHKNILHSEDLLKYILETSAYPREHPQLKELREVTEKHEWSSALVPADEGLFLSMLLKLMNAKRTIEIGVYTGYSLLTTALALPEDGKITAIDVNKSYYEIGLPFIQKAGVEHKINFIESEALPVLDQMLEEMKEEDLYDYAFVDADKSNYANYHERLVKLVRIGGAILYDNTLWYGSVAYPEYPGLHPEEEVARLSFRNLNTFLAADPRVEISQVSIGDGVTICRRLY	above wild-type in at least one tested condition	–
V203E: Nb4OMT variant with mutation V203E (protein, Description of sequence: Improved enzyme variant V203E) MGASIDDYSLVHKNILHSEDLLKYILETSAYPREHEQLKGLREVTEKHEWSSALVPADEGLFLSMLLKLMNAKRTIEIGVYTGYSLLTTALALPEDGKITAIDVNKSYYEIGLPFIQKAGVEHKINFIESEALPVLDQMLEEMKEEDLYDYAFVDADKSNYANYHERLVKLVRIGGAILYDNTLWYGSVAYPEYPGLHPEEEEARLSFRNLNTFLAADPRVEISQVSIGDGVTICRRLY	above wild-type in at least one tested condition	–
E36P/G40E/A53M mutant: Nb4OMT variant with mutations E36P, G40E and A53M (protein) MGASIDDYSLVHKNILHSEDLLKYILETSAYPREHPQLKELREVTEKHEWSSMLVPADEGLFLSMLLKLMNAKRTIEIGVYTGYSLLTTALALPEDGKITAIDVNKSYYEIGLPFIQKAGVEHKINFIESEALPVLDQMLEEMKEEDLYDYAFVDADKSNYANYHERLVKLVRIGGAILYDNTLWYGSVAYPEYPGLHPEEEVARLSFRNLNTFLAADPRVEISQVSIGDGVTICRRLY	–	kcat ([2]; 3.5 nM enzyme, 500 μM SAM, 37° C., PBS pH 7.5): >2 s⁻¹; Km ([2]; calculated by dividing kcat by kcat/Km): < 83 µM; substrate inhibition ([2]; steady state kinetic data, highest norbelladine concentration): affected by substrate inhibition; increase in Tm relative to the wild-type enzyme [3]: 5.6 °C; Tm ([3]; 5 μM protein, SYPRO Orange): 58.4 °C
S159E: Nb4OMT variant with mutation S159E (protein, Description of sequence: Improved enzyme variant S159E) MGASIDDYSLVHKNILHSEDLLKYILETSAYPREHEQLKGLREVTEKHEWSSALVPADEGLFLSMLLKLMNAKRTIEIGVYTGYSLLTTALALPEDGKITAIDVNKSYYEIGLPFIQKAGVEHKINFIESEALPVLDQMLEEMKEEDLYDYAFVDADKENYANYHERLVKLVRIGGAILYDNTLWYGSVAYPEYPGLHPEEEVARLSFRNLNTFLAADPRVEISQVSIGDGVTICRRLY	above wild-type in at least one tested condition	–
H17R: Nb4OMT variant with mutation H17R (protein, Description of sequence: Improved enzyme variant H17R Mutation) MGASIDDYSLVHKNILRSEDLLKYILETSAYPREHEQLKGLREVTEKHEWSSALVPADEGLFLSMLLKLMNAKRTIEIGVYTGYSLLTTALALPEDGKITAIDVNKSYYEIGLPFIQKAGVEHKINFIESEALPVLDQMLEEMKEEDLYDYAFVDADKSNYANYHERLVKLVRIGGAILYDNTLWYGSVAYPEYPGLHPEEEVARLSFRNLNTFLAADPRVEISQVSIGDGVTICRRLY	above wild-type in at least one tested condition	–
A53R: Nb4OMT variant with substitution A53R, predicted without docking (protein) MGASIDDYSLVHKNILHSEDLLKYILETSAYPREHEQLKGLREVTEKHEWSSRLVPADEGLFLSMLLKLMNAKRTIEIGVYTGYSLLTTALALPEDGKITAIDVNKSYYEIGLPFIQKAGVEHKINFIESEALPVLDQMLEEMKEEDLYDYAFVDADKSNYANYHERLVKLVRIGGAILYDNTLWYGSVAYPEYPGLHPEEEVARLSFRNLNTFLAADPRVEISQVSIGDGVTICRRLY	reduced activity under all tested conditions	–
